Measured values reported in paper PMC6921966 (2019).

Target: M2e-VHH-23m (llama)
Assay: ITC

M2e-VHH-23m (llama), sequence (VHH, as listed by the source): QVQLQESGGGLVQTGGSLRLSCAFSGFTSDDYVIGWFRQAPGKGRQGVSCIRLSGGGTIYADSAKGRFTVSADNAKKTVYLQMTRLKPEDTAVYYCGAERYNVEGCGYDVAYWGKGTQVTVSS

SLLTEVETPIRNEWGCRCNDSSD [human H3N2 M2e peptide]
Ka: 1.37e+06 M⁻¹
